15 molecules from patent US20250313612A1 (Adimab, published 2025) can be followed below.

Numbering of substitutions follows the chain as printed.

Sequences and labels used below:
B1: ADI-14496 (antibody, V domains shown)
VH: QVQLVQSGAEVKKPGESLKISCQGSGYSFRSYWIGWVRQKPGKGLEYMGIIFPNDFDTRYSPSFQGQVTISVDKSTSTAFLQWTSLQASDTAIYYCGRQELQGSFTIWGQGTMVTVTS
VL: DIVMTQSPSSLSASVGDRVTITCQASQDMGNSLNWYQQKSGKAPKLLIYDASYLDSGVPSRFSGSGSGTHFTFTISTLQPEDIATYYCQHYDNLLLFTFGPGTKLEIK
B2: ADI-14502 (antibody, V domains shown)
VH: QVQLVQSGAEVKKPGSSVKVSCKASGDTFSMYAISWVRQAPGQGLEWMGGVLPMLGTSNYAQQFRGRVTITADGSTSTAYMEMSNLRFEDTAVYYCARVAGLGNSYGRYFDVWGQGTLVTVSS
VL: DIRMTQSPSSVSASIGDRVTITCRASQDISTSLAWYQQRPGKAPNLLIYAASTLHSGVPSRFRGSESGPDFTLTISSLQPEDVGTYYCQQAKSFPYTFGQGTKLEIK
B3: ADI-14515 (antibody, V domains shown)
VH: QVQLVQSGGGVVQPGSSLRLSCSASGFTFMTYGMHWARQAPGKGLEWVADISFDANKKYYRDSVKGRFTISRDNSKNTVYLQMNSLRPEDTAVYFCARNTIFGVVDYWGQGTLVTVSS
VL: EIVLTQSPATLSVSPGERATLSCRASQSVSANLAWYQHKPGQAPRLLIYGASTRASDIPARFSGSGSGTEFTLTISSLQSEDSAVYYCQQYNNWPPWTFGQGTKVEIK
B4: ADI-14508 (antibody, V domains shown)
VH: QVQLVQSGTEVKKPGASVKVSCKGSGYMFANFGVSWVRQAPGRGLEWIGWISAYNGNTYYGREQGRFTMTTDTNTAYLELTSLRYDDTALYFCARDSGATAAGILWDYWGQGTLVTVSS
VL: EIVMTQSPLSLPVTLGQPASISCRSSQSLAYTDGSTYLNWFHQRPGQSPRRLIYKVFNRDSGVPDRFSGSGAGTDFTLTISRVEAEDVGVYYCMQATHWPRTFGQGTKVDIK
B5: ADI-14493 (antibody, V domains shown)
VH: QVQLQQWGTGLVKPSETLSLTCAVSGGAFSGHQWNWFRQPPGKGLEWIGEINVSGNTHYNVSLRSRVTISLDESKKQFSLKMTSVTAADTAIYYCAKASSGSYHFEYWFDPWSQGTMVTVSS
VL: SYELTQPPSVSVAPGKMAWFTCGGSDIGSKRVHWYQQKPGQAPVLLVYDDSLRPSGTSARVSGSTSGNTATLSIISVEAGDEADYFCQVWDDADDHAVFGGGTKLTVL
B6: ADI-14505 (antibody, V domains shown)
VH: QVQLVQSGAEVKKPGASVKVSCKASGNSFNDFYMHWVRQAPGQGLEWMGWIDPNNGGANYAQKFHGRVTMTRDSSINTAYMELSRLRSDDTAVYYCASEPPGVGFGLIPHYYFDNWGQGTLVTVSS
VL: EIVMTQSPDSLAVSLGERATINCKSSQNVLDTSNNKNYLAWYQQKPGQPPRLLIYWASARGSGVPDRFSGSGSGTHFTLTISSLQAEDVAVYYCQQYFSIPPTFGQGTKVEIK
B7: ADI-14442 (antibody, V domains shown)
VH: QVQLVQSGSEVKKPGASVKVSCKASGYRFSNYGISWVRQAPGQGLEWMGWISAYNGNIKYGNNLQGRVTVTTDTSTATAYMEVRSLTSDDTAVYYCARDVPADGVHFMDVWGQGTLVTVSS
VL: EIVMTQSPLSLPVTLGQPASISCRSSQSLVHSDTNTYLNWFQQRPGQSPRRLIYKVSNRDSGVPDRFSGSGSGTTFTLKISRVEAEDVGIYYCMQGSHWAPTFGQGTKVEIK
B8: ADI-14509 (antibody, V domains shown)
VH: QVQLVQSGSEVKKPGASVTLSCKASGYRFSNYGVSWVRQAPGQGLEWMGWISGYNGNIKYGNSLQGRVTLTTDTTTAYMEVTSLTSDDTAVYYCARDVPADGVHFMDVWGKGTTVTVSS
VL: B7 VL with M4L, N39T, N58H, S81A, Q95E, E110D
B9: ADI-14514 (antibody, V domains shown)
VH: B8 VH with L20V, G53A, I58T, T82R, A100G
VL: B7 VL with P18S, N39T, N58H, Q95E
B10: ADI-14489 (antibody, V domains shown)
VH: B7 VH with A77T, Q113K, L116T
VL: B7 VL with E1D, S7T
B11: ADI-14444 (antibody, V domains shown)
VH: QVQLVQSGPDVKRPGASVRVSCKASGYTFSDYYMHWVRQAPGQGLEWLAWVNPSTGATHYSESFRGSMVVQRDTSTDTAYLELSSLKSDDTAVYYCARIGSNEIWGQGTMVTVSS
VL: QSALTQPASVSGSPGQSITISCAGTSSDIGGWNYVSWYQQYPGQVPKLILYEVTDRPSGVSHRFSGSKSGNRAFLTITGLRAEDEADYYCCSFTSSGSRVFGGGTKVTVL
B12: ADI-14518 (antibody, V domains shown)
VH: QVQLVQSGPEVKKPGASVRVSCKTSGFTLSHYGVSWLRQAPGHGLEWLGWISAYNYNTQFGHRMEGRLTMTTDTSTAYMDLTSLTSDDTAIYYCARDSPSDTAAALLDFWGQGTLVTVSS
VL: DIVLTQSPLSLPVTLGQPASISCRSSQSLVYSDGNTYLSWFQQRPGQAPRRLIYKISNRDSGVPDRFSGSGSGTDFTLKISRVEAEDVGIYYCMQATHWPRLSFGGGTKVEIK
B13: ADI-14519 (antibody, V domains shown)
VH: EVQLVESGAEMKQPGASVKVSCEGFGNTLSERSIHWVRQAPGKGPEWMGDYDHEDKEAIYAPKFQGRLTISADMSTDIASLELNSLTSEDTAVYYCATVIAVGAYDIWGQGTLVTVSS
VL: EIVLTQSPSSLYASIGDRVTITCRTGQSISRYLNWYQQKPGKAPKLLIYAASTLQSGVPSRFSGSGAGTDFTLTIRGLLPEDFATYFCQQSYIIPYTFGQGTKVEIK
B14: ADI-14501 (antibody, V domains shown)
VH: QVQLVQSGAEVKKPGSSVKISCKASGGTFKSQAIHWVRQAPGQGLEWMGNIIPTYGSPNFAQRFLGRVTFIADDSTGAASMDLYRLTSEDTAVYYCATAGWFGELVRFDSWGQGTLVTVSS
VL: DIVMTQSPATLSVSPGERATLSCRATESISSNLAWYQQKPGQAPRLLIYGASTRATGIPARFSGSGSGTEFTLTINSLQSEDFAVYYCQQYNNWPPLTFGGGTKVDIK
B15: ADI-14516 (antibody, V domains shown)
VH: QVQLVQSGVEVKKPGASVKVSCKTSGYTFSNYGVTWVRQAPGQGLEYMGWISAYNGNTNYAQNVQGRLTMTTDTSTSTGYMELRRLTSDDTAVYFCARDKGVTVAGSLLDYWGQGTLVTVSS
VL: EIVMTQSPLSLPVTLGQPASISCRSSQSLEHSDGNTYLNWFQQRPGQSPRRLIYKVSNRDSGVPDRFSGSGSGTDFTLKINRVEAEDVGVYYCMESTHWPPYTFGQGTKVEIK

The target in one assay is RSV F protein of recombinant mKate-RSV, subtype A (strain A2) (Respiratory syncytial virus subtype A …, UniProt P03420 26-574). Kind of assay: cell-based or functional assay.
As to B1, the “Neut IC50 subtype A” value is 0.006 µg/mL.
On the same count and under the same terms, the same measure for B2: greater than 10 µg/mL; for B3: 0.051 µg/mL; for B4: 0.029 µg/mL.
As to B5, the “Neut IC50 subtype A” value turned out to be 0.009 µg/mL.
Still for that read-out and setting: the result for B6 reads 0.065 µg/mL; that for B7, 0.002 µg/mL.
Still for that read-out and setting: the same measure for B8: 0.011 µg/mL; for B9: 0.046 µg/mL.
The same measure, in the same setting: the same measure for B10: 0.023 µg/mL.
For the molecule B11, the “Neut IC50 subtype A” value is greater than 10 µg/mL.
Regarding B12, the “Neut IC50 subtype A” value was determined as 0.019 µg/mL.
On the same count and under the same terms, the result for B13 reads 12.2 µg/mL.
The same measure, in the same setting: the same measure for B14: 12.3 µg/mL; for B15: 0.018 µg/mL.

A further assay deals with RSV F protein of recombinant mKate-RSV, subtype B (18537) (Respiratory syncytial virus subtype B …, UniProt P13843 26-574). Kind of assay: cell-based or functional assay.
Take B1: the “Neut IC50 subtype B” value was greater than 10 µg/mL.
For B2, the “Neut IC50 subtype B” value was 2.72 µg/mL.
On the same count and under the same terms, the same measure for B3: 0.049 µg/mL.
On the same count and under the same terms, the same measure for B4: 0.057 µg/mL; for B5: 1.27 µg/mL.
On the same count and under the same terms, the result for B6 reads 0.018 µg/mL.
As for B7, the “Neut IC50 subtype B” value worked out at 0.015 µg/mL.
Still for that read-out and setting: the same measure for B8: 0.016 µg/mL; for B9: 0.074 µg/mL.
Consider B10, for which the “Neut IC50 subtype B” value was 0.021 µg/mL.
On the same count and under the same terms, the result for B11 reads greater than 10 µg/mL; that for B12, 0.032 µg/mL.
Consider B13, for which the “Neut IC50 subtype B” value was 3.43 µg/mL.
Same read-out and setting: the result for B14 reads 2.29 µg/mL; that for B15, 0.047 µg/mL.
